Measured values from publication PMC4155686, “Oleoyl Coenzyme A Regulates Interaction of Transcriptional Regulator RaaS (Rv1219c) with DNA in Mycobacteria*” (The Journal of Biological Chemistry, 2014).

T1: RaaS wild type (Mycobacterium tuberculosis, UniProt O86312 1-212)
T1 sequence: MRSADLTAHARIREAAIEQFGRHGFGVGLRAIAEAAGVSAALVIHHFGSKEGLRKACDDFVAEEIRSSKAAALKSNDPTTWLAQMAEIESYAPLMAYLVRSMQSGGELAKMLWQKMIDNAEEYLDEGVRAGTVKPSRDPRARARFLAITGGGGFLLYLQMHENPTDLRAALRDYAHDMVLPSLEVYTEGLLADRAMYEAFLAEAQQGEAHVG

B1: RaaS (regulator of antimicrobial-assisted survival), Rv1219c, wild type (natural protein)
chain: T1 sequence
notes: also called wild-type RaaS
B2: Pr14F/Pr14R (ATTO 647N) (dsDNA)
DNA 1: GGGATGAACGTACGTTTAATATCCTGAACATGCGTTCAG
DNA 2: GGGCTGAACGCATGTTCAGGATATTAAACGTACGTTCAT

Experiments:
[1] = molecular target: the molecule itself; assay: small-angle X-ray scattering; protein alone in solution at 1 and 3 mg/ml, data extrapolated to infinite dilution; apparent molecular mass from I(0)
RaaS wild type = molecular target: T1, RaaS wild type; assay: fluorescence anisotropy; 4 nM DNA; conditions: protein: recombinant; chain copies: 2

Binder	stoichiometry N [1]	Kd (RaaS wild type)
B1	2	
B2		31 ± 6 nM
